According to patent US20140315811A1, “OPHTHALMIC PREPARATIONS BASED ON PACAP (PITUITARY ADENYLATE CYCLASE ACTIVATING POLYPEPTIDE) WHICH RESTORE THE NORMAL VISUAL FUNCTION IN EARLY GLAUCOMA” (HMFRA HUNGARY LIMITED LIABILITY COMPANY, priority 2011, published 2014):

Legend:
[1] = system: DBA/2J mouse (photoreceptors and outer nuclear layer response to light); assay: Flash ERG after repeated topical application in murine spontaneous glaucoma model; assay type: in vivo; details: PACAP 50 μM in saline, two weeks, one treatment every 48 h
From the text: The other type of electroretinogram, flash ERG, which measures the response of the photoreceptors and the outer nuclear layer to light, appears wholly intact in glaucoma, further supporting the theory that this is a type of disorder affecting the inner nuclear layer, namely the ganglion cells, at least at the early stage.

[2] = system: DBA/2J mouse (retinal ganglion cells / inner nuclear layer response); assay: Pattern electroretinogram (P-ERG) after repeated topical application in murine spontaneous glaucoma model; assay type: in vivo
From the text: The PACAP receptor, called PAC1, is known to be expressed in the ganglion cells (Seki et al. 1997; 2000; D'Agata and Cavallaro 1998; Hannibal and Fahrenkrug 2004; Kubrusly et al. 2005). The activity of PACAP was verified in the most common experimental model of spontaneous glaucoma, a double mutant mouse called DBA/2J (John et al., 1998; Chang et al., 1999). The DBA/2J mouse presents homozygous mutations of two separate genes; the first is […] (Tyrpl−/−) coding for a melanosome protein, and the second is a membrane glycoprotein (Gpnmb−/−); pigment granules accumulate in the trabecular meshwork, similar to the form of pigmentary glaucoma, with consequent trabecular degeneration, atrophy of the iris and progressive impairment of the outflow of aqueous humor, which leads to an increase in IOP.
This mouse is characterised by a progressive increase in IOP, with progressive loss of the retinal response to structured visual stimuli (which may be lattices formed by pale strips alternating with dark strips, or chess pieces, with different contrasts and sizes) which depends on the inner nuclear layer/ganglion cells; in humans and in the animal model, this retinal response is called the pattern electroretinogram (P-ERG; Domenici et al.,1991; Ventura and Porciatti, 2006; Falsini et al., 2008). The dysfunction of the ganglion cells is followed at a late stage by degeneration of the ganglion cells, with a reduction in their density and progressive atrophy of the optic nerve (Ventura et al., 2006; Buckingham et al., 2008). […] At the age of 11 months the IOP rises further; a progression of the disorder similar to that which takes place in human patients can therefore be deduced. […]

[3] = system: cAMP levels in the retina; assay: Determination of cAMP levels in the retina after topical application of PACAP 38 (Cyclic AMP EIA kit, retinal homogenate); assay type: in vivo, mice (C57BL-6J); details: topical application into conjunctival sac, PACAP 50 μM (0.226 μg/μl) in saline (0.9% NaCl) and acetic acid (5%); 6 hours after application; Student's t-test p<0.05
Protocol: • The preparation Based on Saline Solution (0.9% NaCl) Containing PACAP 38 was Used
The test was conducted on mice (C57BL-6J, Harlan, Italy); PACAP 38 was applied topically, instilled into the conjunctival sac of one eye, while the other eye, used as control, was treated with the saline solution (“placebo”) only. • Determination of cAMP Levels in the Retina
The animals were sacrificed 6 hours after the topical application, when deep anaesthesia had been induced by an intraperitoneal urethane injection (20%). The eye was then removed, and the cAMP level measured in the retinal homogenate of the eye treated with PACAP and of the other eye treated with saline only (control eye). The measurements were performed by cyclic AMP assay using the Cyclic AMP EIA KIT ([…]). The results shown in the chart in FIG. 1 were obtained with a topical application of PACAP (50 μM; 0.226 μg/μl) in saline solution (0.9% NaCl) and acetic acid (5%), and are expressed as relative values (%) compared with the control eye.

Substance: Pituitary Adenylate Cyclase Activating Polypeptide [PACAP]
- Flash ERG of the treated eye (response of photoreceptors and outer nuclear layer to light) [1]: normal flash ERG
- Effectiveness on P-ERG across the three concentrations tested ([2]; 500 nM (0.0022 μg/μl), 1 μM (0.0045 μg/μl), 50 μM (0.226 μg/μl), topical, every 48 hours for two weeks, 8-month-old mice): only the highest concentration (50 μM, 0.226 μg/μl) proved effective
- Effect on alteration of P-ERG (treated eye vs control eye) ([2]; PACAP 50 μM (0.226 μg/μl) in saline, topical, one application every 48 hours for 2 weeks between 8 and 8.5 months of age, p<0.05): prevented the alteration of P-ERG
- Minimal effective concentration able to exert protective effects on the ganglion cell function ([2]; repeated topical treatment, DBA/2J mouse, early stage glaucoma): 0.226 µg/µL
- cAMP level in retinal homogenate, treated eye compared with control eye [3]: significantly higher
